Measured values taken from the supplement of paper PMC7877785.
± gives the uncertainty stated by the source.

Experiment: self-splicing fitness, log relative to wild type (ln ratio); higher = more splicing; Tetrahymena group I intron in knt gene, E. coli kanamycin selection, DiMSum; sequences stand for … in CUCUCU…GGAGGGAAAAGUUAUCAGGCAUGCACCUGGUAGCUAGUCUUUAAACCAAUAGAUUGCAUCGGUUUAAAAGGCAAGACCGUCAAAUUGCGGGAAAGGGGUCAACAGCCGUUCAGUACCAAGUCUCAGGGGAAACUUUGAGAUGGCCUUGCAAAGGGUAUGGUAAUAAGCUGACGGACAUGGUCCUAACCACGCAGCCAAGUCCUAAGUCAACAGAUCUUCUGUUGAUAUGGAUGCAGUUCACAGACUAAAUGUCGGUCGGGGAAGAUGUAUUCUUCUCAUAAGAUAUAGUCGGACCUCUCCUUAAUGGGAGCUAGCGGAUGAAGUGAUGCAACACUGGAGCCGCUGGGAACUAAUUUGUAUGCGAAAGUAUAUUGAUUAGUUUUGGAGUACUCGUGGUCG
Procedure, shortened: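 A randomised library covering all eight P1ex-region intron nucleotides was built with the intron in the knt kanamycin-resistance gene on pET-22b(+) and held in E. coli BL21(DE3). Cells were grown overnight at 37°C or 30°C on LB agar, with or without 25 μg/mL kanamycin, plus 100 μg/mL carbenicillin, 50 μM IPTG and 0.2% rhamnose, and pooled colonies were amplicon-sequenced on an Illumina HiSeq 2500. DiMSum fitness is the error-weighted combination of wild-type-normalised replicate fold changes, kanamycin versus none.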

Row | Sequence | self-splicing fitness (ln) (30 °C) | self-splicing fitness (ln) (37 °C)
1 | GUCUAGCAAUAUUACGACGA | -1.86 ± 0.18 | -0.293 ± 0.16
2 | CUUUAGCAAUAUUACGCAAG | -2.43 ± 0.22 | -1.67 ± 0.3
3 | CUCCAGCAAUAUUACGUAAA | -3.45 ± 0.17 | -2.17 ± 0.18
4 | CUAGAGCAAUAUUACGGUUA | -3.66 ± 0.24 | -3.14 ± 0.4
5 | AACUAGCAAUAUUACGCGUG | -1.53 ± 0.08 | -0.485 ± 0.09
6 | UUGCAGCAAUAUUACGACGU | -3.09 ± 0.29 | -1.11 ± 0.14
7 | GGUAAGCAAUAUUACGGCGC | 0.369 ± 0.14 | 0.841 ± 0.18
8 | GAACAGCAAUAUUACGGAUU | -1.29 ± 0.076 | -0.167 ± 0.093
9 | CGGAAGCAAUAUUACGUAUC | -3.82 ± 0.21 | -2.81 ± 0.22
10 | AAUCAGCAAUAUUACGGUUG | -1.91 ± 0.082 | -0.913 ± 0.1
11 | UCGCAGCAAUAUUACGCUAG | -4.54 ± 0.25 | -2.18 ± 0.2
12 | CCAGAGCAAUAUUACGCGGG | -3.33 ± 0.44 | 
13 | AUGAAGCAAUAUUACGGUGU | -1.33 ± 0.062 | -0.601 ± 0.078
14 | UGCCAGCAAUAUUACGCACA | -0.53 ± 0.093 | -0.708 ± 0.15
15 | AAGUAGCAAUAUUACGUAGG | -4.35 ± 0.28 | -1.75 ± 0.18
16 | GCUAAGCAAUAUUACGCUUA | -1.74 ± 0.26 | -3.17 ± 0.43
17 | UGCGAGCAAUAUUACGUGGG | -4.32 ± 0.43 | -2.69 ± 0.23
18 | UCCAAGCAAUAUUACGAUCG | -2.65 ± 0.19 | -3.06 ± 0.24
19 | UCCGAGCAAUAUUACGUCUU | -3.54 ± 0.25 | -1.62 ± 0.2
20 | CGAAAGCAAUAUUACGCGUU | -4 ± 0.18 | -2.85 ± 0.2
21 | CUCUAGCAAUAUUACGACAG | -1.95 ± 0.14 | -0.569 ± 0.13
22 | ACAGAGCAAUAUUACGACAA |  | -2.31 ± 0.21
23 | ACGUAGCAAUAUUACGAGAA | -2.37 ± 0.26 | -3.02 ± 0.33
24 | CGUCAGCAAUAUUACGCAAA | -2.96 ± 0.17 | -1.12 ± 0.16
25 | UUAUAGCAAUAUUACGACGU | -3.45 ± 0.25 | -1.14 ± 0.16
26 | UACGAGCAAUAUUACGCCAA | -2.18 ± 0.41 | 
27 | GCAUAGCAAUAUUACGUGGA | -3.06 ± 0.25 | -1.75 ± 0.17

Row | Sequence | self-splicing fitness (ln) (30 °C) | self-splicing fitness (ln) (37 °C)
28 | UCCCAGCAAUAUUACGUGCU | -3.59 ± 0.2 | -2.92 ± 0.19
29 | UCUCAGCAAUAUUACGCAUC | -3.51 ± 0.21 | -2.32 ± 0.2
30 | AAGGAGCAAUAUUACGGGGA | -3.91 ± 0.29 | -2.25 ± 0.25
31 | CGACAGCAAUAUUACGCAGC |  | -1.96 ± 0.29
32 | CGAUAGCAAUAUUACGCCCA | -1.46 ± 0.28 | 0.585 ± 0.16
33 | AACUAGCAAUAUUACGCCAC |  | -1.79 ± 0.36
34 | UAAAAGCAAUAUUACGGUAG | -1.14 ± 0.086 | -0.722 ± 0.097
35 | ACUGAGCAAUAUUACGGACG | -2.2 ± 0.13 | -1.9 ± 0.2
36 | CUGGAGCAAUAUUACGAAUG | -1.88 ± 0.12 | 0.0741 ± 0.15
37 | AGUCAGCAAUAUUACGACUU | -2.13 ± 0.11 | -1.96 ± 0.19
38 | GGACAGCAAUAUUACGGUUA | -0.28 ± 0.097 | 0.525 ± 0.11
39 | UAUUAGCAAUAUUACGCGGG | -2.9 ± 0.18 | -1.59 ± 0.23
40 | UAAGAGCAAUAUUACGGUCG | -2.81 ± 0.16 | -1.85 ± 0.15
41 | UUGGAGCAAUAUUACGUCGG | -2.64 ± 0.26 | -0.784 ± 0.19
42 | AUUCAGCAAUAUUACGGGAG | -0.828 ± 0.051 | -0.443 ± 0.063
43 | UGUAAGCAAUAUUACGUUAC | -2.91 ± 0.22 | -3.12 ± 0.37
44 | CAUCAGCAAUAUUACGCCGG | -0.415 ± 0.086 | -0.327 ± 0.11
45 | CUGGAGCAAUAUUACGAUAC | -2.26 ± 0.22 | 
46 | AGUAAGCAAUAUUACGACUG | -1.45 ± 0.12 | 0.23 ± 0.15
47 | UGAGAGCAAUAUUACGCACU | -3.11 ± 0.32 | -2.02 ± 0.21
48 | CUGGAGCAAUAUUACGACAU | -2.19 ± 0.019 | -1.3 ± 0.036
49 | UUACAGCAAUAUUACGUGAU | -4.22 ± 0.19 | -2.37 ± 0.17
50 | CGCCAGCAAUAUUACGCUUG | -2.95 ± 0.13 | -1.88 ± 0.15
51 | AAGUAGCAAUAUUACGAACA | -1.1 ± 0.13 | -0.811 ± 0.18
52 | CGGAAGCAAUAUUACGUCAA |  | -3.55 ± 0.42
53 | CGAGAGCAAUAUUACGCAAU | -2.58 ± 0.36 | 
54 | CUUUAGCAAUAUUACGGCAA | -2.06 ± 0.24 | -1.98 ± 0.28

Row | Sequence | self-splicing fitness (ln) (30 °C) | self-splicing fitness (ln) (37 °C)
55 | GUAAAGCAAUAUUACGGAAU | -0.906 ± 0.099 | -0.779 ± 0.15
56 | CCAGAGCAAUAUUACGCAAG | -2.15 ± 0.19 | -2.33 ± 0.29
57 | GACAAGCAAUAUUACGCAUC | -4.33 ± 0.28 | -3.91 ± 0.42
58 | AUGAAGCAAUAUUACGCGGC | -2.46 ± 0.31 | -2.26 ± 0.29
59 | AUGUAGCAAUAUUACGCAGA | -2.74 ± 0.36 | 0.109 ± 0.18
60 | UUUCAGCAAUAUUACGACUA | 0.605 ± 0.12 | 0.612 ± 0.12
61 | GAUGAGCAAUAUUACGCUCC | -3 ± 0.3 | 
62 | CGUAAGCAAUAUUACGGACU | -0.0269 ± 0.14 | -0.0508 ± 0.14
63 | UACUAGCAAUAUUACGCAAG | -2.98 ± 0.33 | -1.72 ± 0.24
64 | AUUCAGCAAUAUUACGCUUG | -0.971 ± 0.083 | -0.265 ± 0.093
65 | AUGCAGCAAUAUUACGGGUA | -1.56 ± 0.13 | -1.12 ± 0.14
66 | UCCCAGCAAUAUUACGGAAU | -3.64 ± 0.18 | -1.53 ± 0.12
67 | CUGGAGCAAUAUUACGGAUU | -3.29 ± 0.43 | -2.83 ± 0.34
68 | AUCAAGCAAUAUUACGCUAG | -2.76 ± 0.16 | -1.03 ± 0.13
69 | GCCAAGCAAUAUUACGCCCA | -1.18 ± 0.1 | -0.6 ± 0.12
70 | UGUAAGCAAUAUUACGGCAC | -1.49 ± 0.24 | -1.48 ± 0.42
71 | UAGGAGCAAUAUUACGUGAG | -2.42 ± 0.14 | -1.55 ± 0.14
72 | CCACAGCAAUAUUACGAUUA | -3.92 ± 0.18 | -2.11 ± 0.13
73 | CCUCAGCAAUAUUACGGUGA | -3.68 ± 0.28 | -2.28 ± 0.2
74 | CCGGAGCAAUAUUACGUUCA | -1.23 ± 0.17 | -1.63 ± 0.29
75 | CCCCAGCAAUAUUACGAACA | -2.51 ± 0.17 | -2.85 ± 0.28
76 | CAUAAGCAAUAUUACGGCAG | 0.0468 ± 0.075 | -0.545 ± 0.089
77 | AUCUAGCAAUAUUACGUAAG | -2.37 ± 0.12 | -1.16 ± 0.15
78 | GCCGAGCAAUAUUACGUAGG | -3.39 ± 0.21 | -0.729 ± 0.25
79 | UGAGAGCAAUAUUACGAUUU | -2.34 ± 0.17 | -2.26 ± 0.27
